# Data reported in article PMC2646144, “Crucial Role of the CB3-Region of Collagen IV in PARF-Induced Acute Rheumatic Fever” (PLoS ONE, 2009).
# B1: Cyanogen bromide fragment 3 (CB3) of collagen type IV (domain or fragment)
# chain 1: PGVGEKGEPGKPGPRGKPGKDGDKGEKGSPGFPGEPGYPGLIGRQGPQGEKGEAGPPGPPGIVIGTGPLGEKGERGYPGTPGPRGEPGPKGFPGLPGQPGPPGLPVPGQAGAPGFPGERGEKGDRGFPGTSLPGPSGRDGLPGPPGSPGPPGQPGYTNGIVECQPGPPGDQGPPGIPGQPGFIGEIGEKGQKGESCLICDIDGYRGPPGPQGPPGEIGFPGQPGAKGDRGLPGRDGVAGVPGPQGTPGLIGQPGAKGEPGEFYFDLRLKGDKGDPGFPGQPGM
# chain 2: GFPGLRGYPGLSGEKGSPGQKGSRGLDGYQGPDGPRGPKGEAGDPGPPGLPAYSPHPSLAKGARGDPGFPGAQGEPGSQGEPGDPGLPGPPGLSIGDGDQRRGLPGEM
# chain 3: GPKGFIGDPGIPALYGGPPGPDGKRGPPGPPGLPGPPGPDGFLFGLKGAKGRAGFPGLPGSPGARGPKGWKGDAGECRCTEGDEAIKGLPGLPGPKGFAGINGEPGRKGDRGDPGQHGLPGFPGLKGVPGNIGAPGPKGAKGDSRTITTKGERGQPGVPGVPGM
# modifications: 125I (chloramine T method) in the pull-down, bacterial binding and overlay assays | 125I (chloramine T method) in the pull-down, bacterial binding and overlay assays
# Target: T1, GST-M3-protein (recombinant streptococcal M-protein type 3) (S. pyogenes)
# T1 construct: M-protein type 3 (M3-protein) of Streptococcus pyogenes; emm3 amplified from chromosomal DNA of the M3 strain with primers M3-1 (BamHI) and M3-3 (SalI); The GST tag is named on the protein for electron microscopy and the pull-down; also called M3-GST; GST-tagged M-protein type M3; source: E. coli, pGEX6P-1, purified under native conditions; not shown: GST, N-terminal, kept
# Experiment: SPR; BIAcore 2000, CIV or CB3 immobilised on CM5 chip by amine coupling, M3-protein injected at 6.25-50 µg/ml, 10 mM HEPES, 100 mM NaCl, pH 7.4; apparent dissociation constants
# Conditions: both partners purified
binder,measurement,value
B1,Kd,60 nM
